Patent US20160326219A1, “OPTICALLY ACTIVATED RECEPTORS” (IST AUSTRIA (INSTITUTE OF SCIENCE AND TECHNOLOGY AUSTRIA), priority 2013, published 2016)

Legend:
[1] = test system: M38K cells; assay: Cell proliferation, EdU incorporation (M38K cells); assay type: cell-based, human
Method: 2×10^4 M38K cells were seeded in each well of 96-well plates. After 24 h, cells were stimulated for 1 h or kept in the dark. FGF2 (Sigma, St. Louis, Mo.) was added as indicated. After 24 h, cells were incubated with 10 μM EdU for 2 h. Subsequently, newly synthesized DNA was stained with Click-iT EdU (Life Technologies) following the manufacturer's protocol and counterstained with 5 μg/ml Hoechst dye. Cells were photographed on a Nikon Ti300 inverted microscope. To determine the percentage of cells with newly synthesized DNA, Hoechst positive nuclei and EdU positive nuclei were counted.

[2] = test system: M38K cells; assay: Stimulation and Western blot (M38K cells); assay type: cell-based, human; conditions: ~3 μW/mm^2
Description: (§1) M38K and SPC212, two malignant pleural mesothelioma cell lines, were maintained in RPMI1640 supplemented with 10% FBS. Telomerase-immortalized microvascular hBE cells were maintained in Clonetics EGM2 MV endothelial growth medium (Lonza, Wakersville, Md.) supplemented with 5% FBS. For retrovirus generation, Opto-mFGFR1 or mCherry as control was subcloned into pQCXIP (Clontech, Mountain View, Calif.) using EcoRI and NotI restriction enzymes. Viral particles were generated in HEK293 cells by co-transfection with the helper plasmids pVSV-G and p-gag-pol-gpt. Supernatants were used to transduce M38K, SPC212 or hBE cells grown to 50% confluency in 6-well plates. Cells were selected with 0.8 μg/ml puromycin for 10 d and transgene expression was verified by immunoblotting.
(§2) For immunoblotting, 5×10^5 cells were seeded in each well of 6-well plates. After 24 h, medium was replaced with reduced serum medium (M38K, SPC212). After additional 20 h, cells were transferred to the stimulation incubator and illuminated for 1, 5 or 15 min or shielded from light. Cells were then either immediately or after additional 5, 15 or 30 min in the dark washed and lysed in 50 μl lysis buffer per well on ice. Lysates were sonicated and centrifuged (12000 g, 5 min, 4° C.). […] Chemiluminescence was developed with WesternC reagent (Biorad, Hercules, Calif.) and signals recorded on X-ray film (GE Healthcare).

[3] = test system: M38K cells; assay: All optical evaluation of pharmacological compounds / cell morphology, M38K cells stably expressing Opto-mFGFR1; assay type: cell-based, human; conditions: M38K cells; blue light (Opto-mFGFR1) or added growth factor
Description: as §1
10^5 M38K cells were seeded in each well of 6-well plates. After 24 h, cells were stimulated for 1 h or kept in the dark. FGF2 (Sigma) or PD166866 (Pfizer Global Research and Development, New London, Conn.) were added as indicated. After additional 24 h, cells were photographed on the Nikon Ti300 microscope. For quantification of cell morphology, all cell perimeters in randomly selected sections of phase contrast images were traced and aspect ratios (defined as length of major axis divided by length of minor axis of a fitted ellipse) calculated with ImageJ software (National Institute of Health). Greater than 50 individual values contributed to each average.
For M38K cells, cell morphology was evaluated as described above but followed by automated image analysis. Phase contrast images (typically three images from two wells) were automatically analyzed. Images were converted to greyscale, resized and divided into segments for local threshold correction (threshold was defined as most probably intensity multiplied by a constant factor of 0.85; Igor Pro, Wavemetrics, Lake Oswego, Oreg.). Cells were identified and measured in FIJI/ImageJ (Max Planck Society/National Institutes of Health; size limit: 40 to 600 pixel̂2, circularity limit: 0.01 to 1.00). Occasionally, outliers were removed manually. Typically 200 to 1800 individual values contributed to the averages of FIG. 9. For HEK293 cells, MAPK pathway activation was measured using luciferase as described above.

[4] = test system: mFGFR1-related signaling pathways; assay: Detection of additional signaling pathways, Cignal Reporter assays (HEK293 cells); assay type: cell-based, human; conditions: ~3 μW/mm^2, FIG. 3
Method: Activation of additional mFGFR1-related signaling pathways was assayed with Cignal Reporter assays (Qiagen, Hilden, Germany) consisting of mixtures of inducible pathway focused transcription factor-responsive firefly luciferase constructs and a constitutively expressing Renilla luciferase construct. Cells were transfected with 100.3 ng total DNA per well (receptor and reporter at ratio of 1:300) using Lipofectamine 2000 and thereafter treated as described above for detection of MAPK signaling. Cells were processed with the Dual-Glo® Luciferase Assay System (Promega) and signals detected with the microplate reader.

[5] = test system: M38K cells; assay: Gene expression analysis, qPCR (M38K cells); assay type: cell-based, human
Method: 5×10^4 M38K cells were seeded into each well of a 6-well plates. After 24 h, cells were illuminated with a cycle of 5 min light/15 min dark for 48 h. Control cells were kept in the dark. Total RNA was extracted with TRIZOL (LifeTechnologies) and reverse transcribed with MMLV reverse transcriptase (Thermo Scientific). cDNAs corresponding to 50 ng RNA per sample were subjected to SYBR green qPCR on an Abi Prism 7500 Sequence Detection System using published primers (cf. Sakuma, 2012; #2508). GAPDH was used for normalization and fold change of expression level was calculated as 2-ddCt of illuminated versus non-illuminated cells.

[6] = test system: M38K cells; assay: Cell cycle distribution by flow cytometry (M38K cells); assay type: cell-based, human
Method: Cell cycle distribution was analyzed by flow cytometry. 5×10^5 M38K cells were seeded in 25 cm^2 tissue culture flasks. After 24 h, cells were stimulated for 1 h or kept in the dark. After additional 24 h, cells were fixed in ethanol (70%), treated with 50 μg/ml RNAse A and 50 μg/ml propidium iodide (PI). Flow cytometry was performed on a FACSCalibur (BD Biosciences, Schwechat, Austria) and cell cycle distribution calculated with ModFit LT software (Verity Software House, Topsham, Me.).

[7] = test system: blood endothelial cells; assay: Stimulation and Western blot (hBE cells); assay type: cell-based; conditions: ~3 μW/mm^2
Description: as §1, §2

B1: Opto-mFGFR1: chimeric receptor of mFGFR1 intracellular domain and VfAU1-LOV, SEQ ID NO: 58 (protein)
chain: MGSSKSKPKDPSQRLDMKSGTKKSDFHSQMAVHKLAKSIPLRRQVTVSADSSASMNSGVLLVRPSRLSSSGTPMLAGVSEYELPEDPRWELPRDRLVLGKPLGEGCFGQVVLAEAIGLDKDKPNRVTKVAVKMLKSDATEKDLSDLISEMEMMKMIGKHKNIINLLGACTQDGPLYVIVEYASKGNLREYLQARRPPGLEYCYNPSHNPEEQLSSKDLVSCAYQVARGMEYLASKKCIHRDLAARNVLVTEDNVMKIADFGLARDIHHIDYYKKTTNGRLPVKWMAPEALFDRIYTHQSDVWSFGVLLWEIFTLGGSPYPGVPVEELFKLLKEGHRMDKPSNCTNELYMMMRDCWHAVPSQRPTFKQLVEDLDRIVALTSNQEYLDLSIPLDQYSPSFPDTRSSTCSSGEDSVFSHEPLPEEPCLPRHPTQLANSGLKRRVETGPDYSLVKALQMAQQNFVITDASLPDNPIVYASRGFLTLTGYSLDQILGRNCRFLQGPETDPRAVDKIRNAITKGVDTSVCLLNYRQDGTTFWNLFFVAGLRDSKGNIVNYVGVQSKVSEDYAKLLVNEQNIEYKGVRTSNMLRRKTGGSGVDYPYDVPDYALD
modifications: mFGFR1-VfAU1-LOV
- Proliferation (% of nuclei incorporating 5-ethynyl-2'-deoxyuridine) upon light stimulation [1]: increased proliferation
- Phosphorylation upon blue light stimulation [2]: rapid phosphorylation of Opto-mFGFR1 and ERK1/2
- Cell morphology response [3]: EMT-like morphological alterations
- Activation of additional pathways linked to mFGFR1 in response to blue light [4]: activates
- Gene expression changes upon light stimulation [5]: EMT-like gene expression changes
- Cell cycle distribution upon light stimulation [6]: a shift of cell cycle distribution towards the S-phase
- Phosphorylation upon blue light stimulation [7]: rapid phosphorylation of Opto-mFGFR1 and ERK1/2
